Consider one substance from article PMC9017247.

For the assay, the target named is SARS-CoV-2 viral particles (spike protein as shown on the whole virus) (SARS-CoV-2).

“recombinant griffithsin lectin protein (rGRFT) (from UniProt P84801 1-121) (natural protein)” gave an IC50 of rGRFT on SARS-CoV-2 (Ank2, Wuhan like) infection of Vero E6 cells, cytopathic effect reading; rGRFT from 6 uM to 15.4 pM mixed with infectious particles of 33.2 nM.
